Results: patent US20110275102A1

Key:
Assay in all cases: cell-based or functional assay
[1] = biological target: EE-GSK3β: human GSK3β with the EFMPME (EE) epitope tag at the N-terminus (human) (UniProt P49841)
RPRTSSPA = biological target: RPRTSSPA
RPRTSAF = biological target: RPRTSAF
PRTSSF = biological target: PRTSSF

EE-GSK3β: human GSK3β with the EFMPME (EE) epitope tag at the N-terminus (human), sequence (P49841 other isoform, or with tags, fused parts or gaps): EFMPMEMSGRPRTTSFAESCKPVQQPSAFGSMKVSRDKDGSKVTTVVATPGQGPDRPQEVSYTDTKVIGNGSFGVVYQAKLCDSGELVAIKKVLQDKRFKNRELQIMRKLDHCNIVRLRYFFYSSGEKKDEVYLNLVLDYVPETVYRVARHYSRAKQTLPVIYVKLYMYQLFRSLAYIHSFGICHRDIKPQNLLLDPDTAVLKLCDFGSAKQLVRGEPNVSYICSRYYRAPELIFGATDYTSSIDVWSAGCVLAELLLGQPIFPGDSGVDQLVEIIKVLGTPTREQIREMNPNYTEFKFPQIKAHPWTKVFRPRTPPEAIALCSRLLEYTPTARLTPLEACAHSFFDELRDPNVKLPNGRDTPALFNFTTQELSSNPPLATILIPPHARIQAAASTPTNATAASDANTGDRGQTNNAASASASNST

“HA-308D/473D-RAC-PKα: constitutively active double mutant (Thr308 and Ser473 changed to Asp) (enzyme)” was tested, and the increase in GSK3 activity on PP2A treatment after coexpression in 293 cells [1] was 85%.
“HA-KD-RAC-PKα: kinase-dead HA-RAC-PKα in which Lys179 is mutated to Ala (enzyme)” showed an increase in GSK3 activity on PP2A treatment after coexpression in 293 cells [1] of 12%.
In the case of “HA-RAC-PKα immunoprecipitated from IGF-1 stimulated 293 cells (enzyme)”, the rate of phosphorylation (cell stands under Vmax; may belong to V (0.1 mM)) (RPRTSSPA) is reported as 0, the rate of phosphorylation (cell stands under Vmax; may belong to V (0.1 mM)) (RPRTSAF) is reported as 0 and the rate of phosphorylation (cell stands under Vmax; may belong to V (0.1 mM)) (PRTSSF) is reported as 0.
With “HA-RAC-PKα: haemagglutinin epitope-tagged wild-type human RAC-PKα (enzyme)” the increase in GSK3 activity on PP2A treatment after coexpression in 293 cells [1] was 68%.
